# “Also recorded” adds a separate entry of the source. Like-named read-outs stand apart in the source and are kept apart here.
# Key:
# [1] = test system: peripheral blood mononuclear cells (PBMC) of the donor, CD8+ T cells removed
# [2] = clinical, literature; cited from earlier work
# [3] = test system: peripheral blood mononuclear cells (PBMC) of the donor, CD8+ T cells removed; remark: listed apart in the source
# [4] = Production of antibodies against long-acting insulinotropic peptide in normal rats, 26-week administration (bridging ELISA); type: in vivo, Sprague Dawley rat; conditions: for % positive / Positive (animals with antibody) / Time point (of positive antibody finding): SD rat
# Method: The blood was collected before and during administration, at the 13rd, 19th and 26th week, and at the end of the recovery period, the serum was separated from this. It was determined on whether to produce the antibodies against the insulinotropic peptide.
# (§1) In order to detect whether the conjugate of Example 3 has produced an anti-drug antibody (ADA) in the body of rat or Cynomolgus monkey, the conjugate was examined by the bridging ELISA method. The biotinylated conjugate of Example 3 was bound to the 96-well microplate in which streptavidin was coupled to the bottom thereof, and washed with water. Digoxigenin(DIG)-labeled conjugate of Example 3 (hereinafter, HM11260C) was added along with the serum samples of rat or monkey to react and then washed with water. Then, the horseradish peroxidase-coupled anti-DIG antibody (anti-DIG-POD antibody) was added and developed by TMB substrate (3,3′,5,5′-tetramethylbenzidine substrate).
# (§2) Measurement sensitivity in the rat serum was 3.1 ng/ml, and the measurement sensitivity in monkey serum was 12.5 ng/ml. To evaluate the neutralizing capacity against HM11260C of detected anti HM11260C antibody, serum samples and HM11260C were added to the human […] cell line (GLP-1R/CHO) and then the inhibition rate of cAMP-induction was measured.
# [5] = Production of antibodies in Cynomolgus monkey, 26-week administration (bridging ELISA); type: in vivo
# Method: The blood was taken before and during administration, at the 12th, 19th and 26th week, and at the end of the recovery period, the serum was separated from this. It was determined whether to produce the antibodies against the insulinotropic peptide.
# as §1, §2
# [6] = test system: human GLP-1 overexpressed cell line (GLP-1R/CHO); experiment: Neutralizing capacity of detected anti-HM11260C antibody: inhibition of cAMP induction; type: cell-based; conditions: for Neutralizing Ab: SD rat serum
# Method: as §2
# [7] = Total of all groups incl. vehicle, n=200
# [8] = Total of all groups incl. vehicle, n=40
substance,measurement,setting,value
"Keyhole Limpet Haemocyanin [KLH, reference compound]",Proliferation and ELISpot %,[1],80%
Lixisenatide,patients who produced an antibody,[2],60-71%
imidazoacetyl-exendin-4 [CA Exendin-4],Frequency of Response (%),[1],12%
same,Proliferation and ELISpot %,[1],10%
same,Frequency of Response (%),[3],12%
Imidazo-Acetyl Exendin-4 (Lys27)-Immunoglobulin Fc Conjugate [HM11260C],% positive,"[4]; 26 weeks, high dose, n=60",1.6%
same,% positive,"[4]; 26 weeks, low dose, n=40",2.5%
same,% positive,"[4]; 26 weeks, mid dose, n=40",0%
same,Positive (animals with antibody),"[4]; s.c. once a week 26 weeks + 4 weeks recovery, high dose, n=60",1
same,Positive (animals with antibody),"[4]; s.c. once a week 26 weeks + 4 weeks recovery, low dose, n=40",1
same,Positive (animals with antibody),"[4]; s.c. once a week 26 weeks + 4 weeks recovery, mid dose, n=40",0
same,% positive,[4]; [7],1.0%
same,Positive (animals with antibody),[4]; [7],2
same,Time point (of positive antibody finding),[4]; high dose,recovery
same,Time point (of positive antibody finding),[4]; low dose,Week 13
same,subjects in which antibodies were detected,[4]; among 160 rats administered with the drug,two
same,% positive,[5]; [8],0%
same,Positive/total,[5]; [8],0
same,production of antibodies,[5]; all subjects,no production of the antibodies in all subjects was detected
same,% positive,"[5]; high dose, n=12",0%
same,% positive,"[5]; low dose, n=8",0%
same,% positive,"[5]; mid dose, n=8",0%
same,Positive/total,"[5]; s.c. once a week 26 weeks + 4 weeks recovery, high dose, n=12",0
same,Positive/total,"[5]; s.c. once a week 26 weeks + 4 weeks recovery, low dose, n=8",0
same,Positive/total,"[5]; s.c. once a week 26 weeks + 4 weeks recovery, mid dose, n=8",0
same,Neutralizing Ab,[6]; Total of all groups,0
same,Neutralizing Ab,[6]; high dose,0
same,Neutralizing Ab,[6]; low dose,0
same,Neutralizing Ab,[6]; mid dose,0
same,neutralizing ability of the detected antibodies,[6]; sera of the two antibody-positive rats,not neutralizing antibodies; also recorded: no neutralizing ability

# From patent US20220118103A1, “METHOD FOR DECREASING IMMUNOGENICITY OF PROTEIN AND PEPTIDE” (HANMI PHARM. CO., LTD., priority 2014, published 2022)
